The supplement of paper PMC10065799, “High-throughput profiling of sequence recognition by tyrosine kinases and SH2 domains using bacterial peptide display” (eLife, 2023)
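Further: 11-residue human phosphosite peptides and single-mutation variants displayed on the E. coli surface, counted by deep sequencing, each peptide's frequency after selection divided by its frequency in the unselected input library; frequency after pTyr selection over input frequency; kinase dosed for 20-30% of maximal phosphorylation in three min.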

These sequences were tested on AncSZ (assay: phosphorylation enrichment, bacterial display (enrichment ratio); higher = better substrate or ligand; peptides without Tyr show the background).
Work on TFMKQYPKVFL [CNBD1_Y70] yielded a phosphorylation enrichment of 0.82. For VDTRAYLTSAT [MT-CO1_Y304_F305L], the phosphorylation enrichment was 0.671. With MVTSGYKAKMI [EFR3A_Y447_T451M] the phosphorylation enrichment was 0.563. With VTQEPYELFCE [CBL_Y368_Q367P_YF] the phosphorylation enrichment was 1.58. DFLSSYSAVKQ [OAT_Y85_N89K] showed a phosphorylation enrichment of 1.5. For PKGIGYGQGAG [CSRP3_Y73], the phosphorylation enrichment was 0.458. TFEFKYPEGSS [TGM4_Y440_YF] gave a phosphorylation enrichment of 1.02. Work on RAMRRYLERGE [ERBB3_Y680] yielded a phosphorylation enrichment of 0.722. With LAAAKYKLNVD [SMARCA2_Y1190] the phosphorylation enrichment was 0.444. AVAFVYFKSIG [ADGRL4_Y301_YF] was tested, and the phosphorylation enrichment was 1.38. For VPANRYDLLRL [FARSB_Y72_C76R], the phosphorylation enrichment was 0.519. With TAGEPYHDIRF [BAP1_Y223] the phosphorylation enrichment was 0.821. EFGSGYPNDPK [RNASEH2A_Y210_D205E_YF] showed a phosphorylation enrichment of 0.884. EGLRRYLENGK [HLA-A_Y195_W191G] gave a phosphorylation enrichment of 0.463. For GVPLGYPIKAP [ELN_Y206], the phosphorylation enrichment was 0.563. Work on FETDFYQKGGK [INSR_Y1190_R1191Q_YF] yielded a phosphorylation enrichment of 0.633. QTEAEYRFIYM [PTPN11_Y511_Q510E] was tested, and the phosphorylation enrichment was 1.55. PGDGEYFTLQI [TP53_Y327_L323G] showed a phosphorylation enrichment of 2.91. For PSPTKYSLSPS [RANBP2_Y785_R784K], the phosphorylation enrichment was 1.19. Sequence VAHAVYQAVLS [SMG1_Y549] has a phosphorylation enrichment of 0.899. FFDANYDGKEF [MAPRE2_Y162_YF] showed a phosphorylation enrichment of 1.11. Sequence GADDSYFTARS [ZAP70_Y492_YF] has a phosphorylation enrichment of 0.657. Work on DTFDPYLDIAL [USP36_Y268_V271I_YF] yielded a phosphorylation enrichment of 1.25. KLVQLYGVCTK [BTK_Y461] showed a phosphorylation enrichment of 0.848. Work on FADPFYDFEIE [ZC3H18_Y372_YF] yielded a phosphorylation enrichment of 1.36. For EVVGRYSGHNA [MLH1_Y183_V185G], the phosphorylation enrichment was 0.464. With EEKKKYFDTKI [CASP5_Y103_YF] the phosphorylation enrichment was 0.928. For MDDDQYALLTT [EFCAB6_Y675], the phosphorylation enrichment was 1.39. In the case of NGTVTYAIIAG [CDH23_Y1672_V1675I], the phosphorylation enrichment is reported as 1.1.

Each sequence was assayed against EPHB1 (UniProt P54762) in the same assay as above.
Chain of EPHB1 (P54762 whole entry, looked up): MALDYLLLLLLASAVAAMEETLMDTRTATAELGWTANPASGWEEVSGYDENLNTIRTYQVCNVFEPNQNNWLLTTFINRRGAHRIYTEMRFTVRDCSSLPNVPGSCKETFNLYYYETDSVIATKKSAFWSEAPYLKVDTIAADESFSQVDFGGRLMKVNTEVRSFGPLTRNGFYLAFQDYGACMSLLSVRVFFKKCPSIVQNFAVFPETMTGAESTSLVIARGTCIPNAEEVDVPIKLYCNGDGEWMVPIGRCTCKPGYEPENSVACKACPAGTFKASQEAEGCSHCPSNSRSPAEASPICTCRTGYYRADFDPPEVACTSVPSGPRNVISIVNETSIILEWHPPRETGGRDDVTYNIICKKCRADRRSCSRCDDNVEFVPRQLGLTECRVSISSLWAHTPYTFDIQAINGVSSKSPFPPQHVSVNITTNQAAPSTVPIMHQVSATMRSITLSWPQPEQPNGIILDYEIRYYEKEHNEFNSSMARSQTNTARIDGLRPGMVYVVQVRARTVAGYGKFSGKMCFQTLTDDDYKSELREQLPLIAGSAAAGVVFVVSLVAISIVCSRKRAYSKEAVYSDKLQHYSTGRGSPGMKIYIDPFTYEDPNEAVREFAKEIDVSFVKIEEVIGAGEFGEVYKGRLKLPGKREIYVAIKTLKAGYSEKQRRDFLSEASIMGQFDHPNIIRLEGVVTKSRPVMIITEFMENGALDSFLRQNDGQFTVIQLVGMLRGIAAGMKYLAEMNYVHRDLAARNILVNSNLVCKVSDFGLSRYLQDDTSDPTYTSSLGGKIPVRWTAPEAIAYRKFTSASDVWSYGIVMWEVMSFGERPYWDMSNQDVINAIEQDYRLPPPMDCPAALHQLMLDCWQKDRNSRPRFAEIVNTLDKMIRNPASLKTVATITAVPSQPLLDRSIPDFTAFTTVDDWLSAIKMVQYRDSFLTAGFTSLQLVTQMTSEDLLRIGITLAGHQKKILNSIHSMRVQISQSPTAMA
With TFMKQYPKVFL [CNBD1_Y70] the phosphorylation enrichment was 0.54. VDTRAYLTSAT [MT-CO1_Y304_F305L] was tested, and the phosphorylation enrichment was 0.589. In the case of MVTSGYKAKMI [EFR3A_Y447_T451M], the phosphorylation enrichment is reported as 0.401. VTQEPYELFCE [CBL_Y368_Q367P_YF] showed a phosphorylation enrichment of 0.74. DFLSSYSAVKQ [OAT_Y85_N89K] was tested, and the phosphorylation enrichment was 0.516. In the case of PKGIGYGQGAG [CSRP3_Y73], the phosphorylation enrichment is reported as 0.396. For TFEFKYPEGSS [TGM4_Y440_YF], the phosphorylation enrichment was 0.437. RAMRRYLERGE [ERBB3_Y680] was tested, and the phosphorylation enrichment was 0.719. LAAAKYKLNVD [SMARCA2_Y1190] gave a phosphorylation enrichment of 0.426. For AVAFVYFKSIG [ADGRL4_Y301_YF], the phosphorylation enrichment was 0.911. In the case of VPANRYDLLRL [FARSB_Y72_C76R], the phosphorylation enrichment is reported as 0.424. TAGEPYHDIRF [BAP1_Y223] was tested, and the phosphorylation enrichment was 0.555. For EFGSGYPNDPK [RNASEH2A_Y210_D205E_YF], the phosphorylation enrichment was 0.562. With EGLRRYLENGK [HLA-A_Y195_W191G] the phosphorylation enrichment was 0.346. With GVPLGYPIKAP [ELN_Y206] the phosphorylation enrichment was 0.323. FETDFYQKGGK [INSR_Y1190_R1191Q_YF] was tested, and the phosphorylation enrichment was 0.834. Sequence QTEAEYRFIYM [PTPN11_Y511_Q510E] has a phosphorylation enrichment of 1.09. In the case of PGDGEYFTLQI [TP53_Y327_L323G], the phosphorylation enrichment is reported as 0.895. In the case of PSPTKYSLSPS [RANBP2_Y785_R784K], the phosphorylation enrichment is reported as 0.437. VAHAVYQAVLS [SMG1_Y549] gave a phosphorylation enrichment of 9.09. In the case of FFDANYDGKEF [MAPRE2_Y162_YF], the phosphorylation enrichment is reported as 0.558. Sequence GADDSYFTARS [ZAP70_Y492_YF] has a phosphorylation enrichment of 0.299. Work on DTFDPYLDIAL [USP36_Y268_V271I_YF] yielded a phosphorylation enrichment of 0.73. In the case of KLVQLYGVCTK [BTK_Y461], the phosphorylation enrichment is reported as 1.33. In the case of FADPFYDFEIE [ZC3H18_Y372_YF], the phosphorylation enrichment is reported as 0.785. EVVGRYSGHNA [MLH1_Y183_V185G] gave a phosphorylation enrichment of 0.434. In the case of EEKKKYFDTKI [CASP5_Y103_YF], the phosphorylation enrichment is reported as 0.429. With MDDDQYALLTT [EFCAB6_Y675] the phosphorylation enrichment was 0.677. Sequence NGTVTYAIIAG [CDH23_Y1672_V1675I] has a phosphorylation enrichment of 2.83.

Each sequence was assayed against EPHB2 (UniProt P29323) in the same assay as above.
Chain of EPHB2 (P29323 whole entry, looked up): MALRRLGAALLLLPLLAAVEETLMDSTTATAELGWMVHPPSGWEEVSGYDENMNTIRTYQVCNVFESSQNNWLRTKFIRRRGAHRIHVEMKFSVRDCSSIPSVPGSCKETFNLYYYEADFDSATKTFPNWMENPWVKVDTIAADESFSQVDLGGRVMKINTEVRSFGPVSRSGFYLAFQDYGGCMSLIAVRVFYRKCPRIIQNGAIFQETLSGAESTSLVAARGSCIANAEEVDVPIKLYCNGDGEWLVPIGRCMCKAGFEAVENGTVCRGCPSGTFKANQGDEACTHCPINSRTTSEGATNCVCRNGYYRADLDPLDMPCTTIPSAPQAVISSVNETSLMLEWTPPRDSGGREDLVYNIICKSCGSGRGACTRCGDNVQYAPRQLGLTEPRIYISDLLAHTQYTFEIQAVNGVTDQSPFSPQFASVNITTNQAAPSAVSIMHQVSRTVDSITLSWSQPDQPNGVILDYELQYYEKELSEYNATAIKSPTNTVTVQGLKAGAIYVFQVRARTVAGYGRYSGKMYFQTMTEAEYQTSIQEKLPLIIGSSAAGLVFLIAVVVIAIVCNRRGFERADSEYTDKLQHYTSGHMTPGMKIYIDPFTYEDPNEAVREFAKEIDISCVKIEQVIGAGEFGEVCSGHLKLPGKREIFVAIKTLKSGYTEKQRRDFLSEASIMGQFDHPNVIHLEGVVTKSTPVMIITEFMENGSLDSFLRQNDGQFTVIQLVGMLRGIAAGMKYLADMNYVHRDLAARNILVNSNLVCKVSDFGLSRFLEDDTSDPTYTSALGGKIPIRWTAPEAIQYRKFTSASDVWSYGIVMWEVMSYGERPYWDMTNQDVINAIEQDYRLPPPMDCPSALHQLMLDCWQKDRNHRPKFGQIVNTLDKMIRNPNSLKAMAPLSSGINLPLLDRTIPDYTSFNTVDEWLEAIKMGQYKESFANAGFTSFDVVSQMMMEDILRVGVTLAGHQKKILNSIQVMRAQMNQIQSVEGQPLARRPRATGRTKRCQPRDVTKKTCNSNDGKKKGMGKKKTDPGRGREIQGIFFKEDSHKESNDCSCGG
TFMKQYPKVFL [CNBD1_Y70] was tested, and the phosphorylation enrichment was 0.541. For VDTRAYLTSAT [MT-CO1_Y304_F305L], the phosphorylation enrichment was 0.438. MVTSGYKAKMI [EFR3A_Y447_T451M] was tested, and the phosphorylation enrichment was 0.528. For VTQEPYELFCE [CBL_Y368_Q367P_YF], the phosphorylation enrichment was 0.687. DFLSSYSAVKQ [OAT_Y85_N89K] gave a phosphorylation enrichment of 0.502. PKGIGYGQGAG [CSRP3_Y73] gave a phosphorylation enrichment of 0.469. Sequence TFEFKYPEGSS [TGM4_Y440_YF] has a phosphorylation enrichment of 0.583. In the case of RAMRRYLERGE [ERBB3_Y680], the phosphorylation enrichment is reported as 0.563. LAAAKYKLNVD [SMARCA2_Y1190] gave a phosphorylation enrichment of 0.336. AVAFVYFKSIG [ADGRL4_Y301_YF] was tested, and the phosphorylation enrichment was 0.797. For VPANRYDLLRL [FARSB_Y72_C76R], the phosphorylation enrichment was 0.403. TAGEPYHDIRF [BAP1_Y223] gave a phosphorylation enrichment of 0.446. With EFGSGYPNDPK [RNASEH2A_Y210_D205E_YF] the phosphorylation enrichment was 0.51. Work on EGLRRYLENGK [HLA-A_Y195_W191G] yielded a phosphorylation enrichment of 0.323. GVPLGYPIKAP [ELN_Y206] gave a phosphorylation enrichment of 0.388. FETDFYQKGGK [INSR_Y1190_R1191Q_YF] gave a phosphorylation enrichment of 0.355. Work on QTEAEYRFIYM [PTPN11_Y511_Q510E] yielded a phosphorylation enrichment of 0.65. Work on PGDGEYFTLQI [TP53_Y327_L323G] yielded a phosphorylation enrichment of 0.892. For PSPTKYSLSPS [RANBP2_Y785_R784K], the phosphorylation enrichment was 0.492. VAHAVYQAVLS [SMG1_Y549] was tested, and the phosphorylation enrichment was 7.85. FFDANYDGKEF [MAPRE2_Y162_YF] showed a phosphorylation enrichment of 0.666. With GADDSYFTARS [ZAP70_Y492_YF] the phosphorylation enrichment was 0.44. DTFDPYLDIAL [USP36_Y268_V271I_YF] was tested, and the phosphorylation enrichment was 0.589. Work on KLVQLYGVCTK [BTK_Y461] yielded a phosphorylation enrichment of 1.43. With FADPFYDFEIE [ZC3H18_Y372_YF] the phosphorylation enrichment was 0.687. For EVVGRYSGHNA [MLH1_Y183_V185G], the phosphorylation enrichment was 0.4. In the case of EEKKKYFDTKI [CASP5_Y103_YF], the phosphorylation enrichment is reported as 0.445. MDDDQYALLTT [EFCAB6_Y675] gave a phosphorylation enrichment of 0.785. Work on NGTVTYAIIAG [CDH23_Y1672_V1675I] yielded a phosphorylation enrichment of 1.12.

What follows are sequences tested against FGFR1 (UniProt P11362) in the same assay as above.
Chain of FGFR1 (P11362 whole entry, looked up): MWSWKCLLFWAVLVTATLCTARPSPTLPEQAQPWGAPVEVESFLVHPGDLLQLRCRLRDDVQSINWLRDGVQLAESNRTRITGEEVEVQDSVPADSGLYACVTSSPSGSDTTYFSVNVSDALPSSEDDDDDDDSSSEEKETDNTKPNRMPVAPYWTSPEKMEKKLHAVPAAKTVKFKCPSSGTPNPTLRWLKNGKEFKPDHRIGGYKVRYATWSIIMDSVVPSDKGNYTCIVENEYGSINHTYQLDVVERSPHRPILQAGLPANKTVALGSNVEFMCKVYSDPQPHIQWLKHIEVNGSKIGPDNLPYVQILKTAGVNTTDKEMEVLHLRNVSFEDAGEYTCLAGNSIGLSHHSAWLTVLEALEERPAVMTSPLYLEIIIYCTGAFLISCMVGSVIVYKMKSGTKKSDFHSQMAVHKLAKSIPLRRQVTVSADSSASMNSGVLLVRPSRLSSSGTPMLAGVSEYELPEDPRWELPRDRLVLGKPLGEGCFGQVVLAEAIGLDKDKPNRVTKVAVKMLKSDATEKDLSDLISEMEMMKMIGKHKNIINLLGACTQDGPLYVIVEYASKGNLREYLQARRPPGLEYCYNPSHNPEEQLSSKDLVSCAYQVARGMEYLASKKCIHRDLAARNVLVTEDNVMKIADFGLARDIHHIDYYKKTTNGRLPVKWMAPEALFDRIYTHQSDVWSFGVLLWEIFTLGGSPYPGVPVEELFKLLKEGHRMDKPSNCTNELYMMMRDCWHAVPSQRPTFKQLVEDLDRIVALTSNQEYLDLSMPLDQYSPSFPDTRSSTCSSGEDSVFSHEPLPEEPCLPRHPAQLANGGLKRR
For TFMKQYPKVFL [CNBD1_Y70], the phosphorylation enrichment was 0.55. Work on VDTRAYLTSAT [MT-CO1_Y304_F305L] yielded a phosphorylation enrichment of 0.518. Sequence MVTSGYKAKMI [EFR3A_Y447_T451M] has a phosphorylation enrichment of 0.384. In the case of VTQEPYELFCE [CBL_Y368_Q367P_YF], the phosphorylation enrichment is reported as 0.649. Sequence DFLSSYSAVKQ [OAT_Y85_N89K] has a phosphorylation enrichment of 0.491. PKGIGYGQGAG [CSRP3_Y73] was tested, and the phosphorylation enrichment was 0.731. TFEFKYPEGSS [TGM4_Y440_YF] showed a phosphorylation enrichment of 0.518. RAMRRYLERGE [ERBB3_Y680] gave a phosphorylation enrichment of 0.636. Sequence LAAAKYKLNVD [SMARCA2_Y1190] has a phosphorylation enrichment of 0.322. Work on AVAFVYFKSIG [ADGRL4_Y301_YF] yielded a phosphorylation enrichment of 0.798. VPANRYDLLRL [FARSB_Y72_C76R] was tested, and the phosphorylation enrichment was 0.414. TAGEPYHDIRF [BAP1_Y223] gave a phosphorylation enrichment of 1.54. In the case of EFGSGYPNDPK [RNASEH2A_Y210_D205E_YF], the phosphorylation enrichment is reported as 0.406. With EGLRRYLENGK [HLA-A_Y195_W191G] the phosphorylation enrichment was 0.315. Sequence GVPLGYPIKAP [ELN_Y206] has a phosphorylation enrichment of 0.462. Sequence FETDFYQKGGK [INSR_Y1190_R1191Q_YF] has a phosphorylation enrichment of 0.411. For QTEAEYRFIYM [PTPN11_Y511_Q510E], the phosphorylation enrichment was 4.4. With PGDGEYFTLQI [TP53_Y327_L323G] the phosphorylation enrichment was 10.5. With PSPTKYSLSPS [RANBP2_Y785_R784K] the phosphorylation enrichment was 0.515. VAHAVYQAVLS [SMG1_Y549] was tested, and the phosphorylation enrichment was 0.656. In the case of FFDANYDGKEF [MAPRE2_Y162_YF], the phosphorylation enrichment is reported as 0.824. GADDSYFTARS [ZAP70_Y492_YF] showed a phosphorylation enrichment of 0.557. DTFDPYLDIAL [USP36_Y268_V271I_YF] showed a phosphorylation enrichment of 0.783. In the case of KLVQLYGVCTK [BTK_Y461], the phosphorylation enrichment is reported as 0.439. FADPFYDFEIE [ZC3H18_Y372_YF] gave a phosphorylation enrichment of 0.57. In the case of EVVGRYSGHNA [MLH1_Y183_V185G], the phosphorylation enrichment is reported as 0.405. In the case of EEKKKYFDTKI [CASP5_Y103_YF], the phosphorylation enrichment is reported as 0.447. MDDDQYALLTT [EFCAB6_Y675] gave a phosphorylation enrichment of 1.1. In the case of NGTVTYAIIAG [CDH23_Y1672_V1675I], the phosphorylation enrichment is reported as 0.628.
